The chains are these.
B1: MEF2-activating motif and SAP domain-containing transcriptional regulator, residues 170 to 204; numbered along this chain, Q6ZN01 (parent)
chain: LKLEELTVSELRQQLRLRGLPVSGTKSMLLERMRG
B2: Storkhead-box protein 2, residues 64 to 141; numbered along this chain, Q9P2F5 (parent)
chain: SPISQSQFIPLGEILCLAISAMNSARKPVTQEALMEHLTTCFPGVPTPSQEILRHTLNTLVRERKIYPTPDGYFIVTP

± gives the uncertainty stated by the source.

The first data set covers variants of B1. In words: abundance fitness (aPCA) (normalised: wild type 0, dead -1); higher = more abundant; growth selection in yeast, the domain comes from the species named. The following applies: Homo sapiens.
For K2S, the abundance fitness was -0.201 ± 0.11.

K2C: the abundance fitness was -0.136 ± 0.07.

On to K2R, for which the abundance fitness is -0.042 ± 0.1. For the variant K2D, the abundance fitness was -0.496 ± 0.26.

For the variant K2W, the abundance fitness is -0.159 ± 0.14. Still for that read-out and setting: in the case of K2E it was 0.007 ± 0.067; in that of K2N, -0.128 ± 0.17; in that of K2P, -0.572 ± 0.12.

On to K2L, for which the abundance fitness is -0.444 ± 0.08. Take E4H: the abundance fitness was -0.046 ± 0.14.

Regarding E4L, the abundance fitness is -0.919 ± 0.085. Regarding E4F, the abundance fitness is -0.679 ± 0.1.

In the case of E4V, the abundance fitness is -1.08 ± 0.16. As for E4P, the abundance fitness was -0.394 ± 0.29. The same measure, in the same setting: in the case of E4Q it was -0.317 ± 0.16; in that of E4Y, -0.804 ± 0.18; in that of E4A, -0.667 ± 0.12. As for E4T, the abundance fitness is -0.171 ± 0.061.

On to E4S, for which the abundance fitness was -0.23 ± 0.11. In the case of E4I, the abundance fitness was -0.464 ± 0.23. For E4C, the abundance fitness is -0.518 ± 0.14.

For E4G, the abundance fitness is -0.574 ± 0.055. On the same count and under the same terms, in the case of E4M it was -0.41 ± 0.071. For the variant E4D, the abundance fitness was -0.035 ± 0.11. Consider E4N, for which the abundance fitness is -0.017 ± 0.21. Take T7D: the abundance fitness was -0.111 ± 0.2. Take T7H: the abundance fitness was -0.48 ± 0.098. Take T7M: the abundance fitness is -0.598 ± 0.16.

Consider T7W, for which the abundance fitness is -0.518 ± 0.099. With T7G, the abundance fitness is -0.199 ± 0.054. In the case of T7N, the abundance fitness is -0.249 ± 0.4.

Take T7Q: the abundance fitness was -0.336 ± 0.07. For the variant T7K, the abundance fitness is -0.184 ± 0.097. T7A: the abundance fitness is -0.519 ± 0.18. As for T7P, the abundance fitness was -0.227 ± 0.15.

As for T7L, the abundance fitness is -0.768 ± 0.099. As for T7V, the abundance fitness is -1.29 ± 0.13. T7S: the abundance fitness was -0.071 ± 0.065. On to T7E, for which the abundance fitness is -0.347 ± 0.072.

In the case of T7C, the abundance fitness is -0.594 ± 0.17. As for E5P, the abundance fitness was -0.335 ± 0.19. Consider E5S, for which the abundance fitness is -0.188 ± 0.074. For E5Y, the abundance fitness is -0.424 ± 0.11. As for E5C, the abundance fitness is -0.183 ± 0.18.

Consider E5Q, for which the abundance fitness is -0.306 ± 0.1. On to E5V, for which the abundance fitness is -0.329 ± 0.088. In the case of E5L, the abundance fitness is -0.548 ± 0.1. The same measure, in the same setting: in the case of E5R it was -0.239 ± 0.084; in that of E5T, -0.271 ± 0.11; in that of E5W, -0.776 ± 0.14. In the case of E5G, the abundance fitness is -0.359 ± 0.1. As to E5A, the abundance fitness was -0.218 ± 0.069. For S9A, the abundance fitness stood at 0.016 ± 0.054. Regarding S9D, the abundance fitness came out at 0.173 ± 0.074. On the same count and under the same terms, in the case of S9C it was -0.347 ± 0.13; in that of L6R, -0.458 ± 0.064; in that of L6E, -0.369 ± 0.11. In the case of L6Y, the abundance fitness is -0.384 ± 0.12.

As to L6G, the abundance fitness is -0.533 ± 0.059. The same measure, in the same setting: in the case of L6I it was -0.266 ± 0.13.

In the case of L6Q, the abundance fitness is -0.236 ± 0.07. Turning to L6H, the abundance fitness is -0.434 ± 0.11. On the same count and under the same terms, in the case of L6C it was -0.299 ± 0.19. Turning to L6D, the abundance fitness is -0.356 ± 0.14. Consider L6N, for which the abundance fitness is -0.166 ± 0.11. For the variant L6A, the abundance fitness was -0.314 ± 0.067. Turning to L6V, the abundance fitness was -0.399 ± 0.078. With L6W, the abundance fitness was -0.175 ± 0.072. On to L6T, for which the abundance fitness was -0.632 ± 0.11. For the variant L3S, the abundance fitness was -0.22 ± 0.088.

Consider L3Y, for which the abundance fitness is -0.556 ± 0.16. L3E: the abundance fitness is -0.249 ± 0.1. On to L3W, for which the abundance fitness was -0.434 ± 0.089.

Regarding L3F, the abundance fitness worked out at 0.065 ± 0.16. L3Q: the abundance fitness is -0.296 ± 0.089. Regarding L3G, the abundance fitness was -0.304 ± 0.05. In the case of L3P, the abundance fitness was -0.14 ± 0.087. On the same count and under the same terms, in the case of L3A it was -0.275 ± 0.16; in that of L3R, -0.416 ± 0.064; in that of L3D, -0.098 ± 0.12. As for L3V, the abundance fitness was -0.272 ± 0.097.

On to L3C, for which the abundance fitness is -1.03 ± 0.15.

In the case of L3K, the abundance fitness amounted to 0.017 ± 0.11. Take V8A: the abundance fitness is 0.142 ± 0.093. For V8K, the abundance fitness was -0.066 ± 0.11. On to V8L, for which the abundance fitness is -0.099 ± 0.055. As for V8H, the abundance fitness is -0.486 ± 0.092. V8P: the abundance fitness is -0.39 ± 0.091.

Take V8N: the abundance fitness was -0.387 ± 0.14. For V8G, the abundance fitness was -0.429 ± 0.06.

Regarding V8S, the abundance fitness is -0.28 ± 0.068. The same measure, in the same setting: in the case of V8D it was -0.38 ± 0.073; in that of V8Y, -0.576 ± 0.15. Consider V8C, for which the abundance fitness is -0.486 ± 0.49.

With V8E, the abundance fitness worked out at 0.026 ± 0.072. As to V8Q, the abundance fitness is -0.648 ± 0.074. With V8M, the abundance fitness is -0.206 ± 0.17. For the variant V8R, the abundance fitness is -0.309 ± 0.063. On to V8W, for which the abundance fitness is -0.03 ± 0.18. In the case of L1Y, the abundance fitness was found to be 0.02 ± 0.24. On the same count and under the same terms, in the case of L1N it was 0.092 ± 0.45; in that of L1K, -0.05 ± 0.22.

With L1V, the abundance fitness was -0.134 ± 0.11. L1S: the abundance fitness is -0.12 ± 0.068.

For L1F, the abundance fitness was -0.19 ± 0.13. Take L1I: the abundance fitness was found to be 0.108 ± 0.073. Take L1W: the abundance fitness was -0.045 ± 0.11. In the case of L1R, the abundance fitness was -0.262 ± 0.14. Regarding L1G, the abundance fitness was -0.364 ± 0.21. For L1E, the abundance fitness was determined as 0.136 ± 0.086.

The variants in a further data set derive from B2. The description is as above. The following applies: Homo sapiens.
Turning to T77L, the abundance fitness was -0.072 ± 0.066. Same read-out and setting: in the case of T77G it was -0.057 ± 0.048. For the variant L60M, the abundance fitness was -0.126 ± 0.055. For the variant L15K, the abundance fitness was -0.572 ± 0.15. Take L15H: the abundance fitness was -0.796 ± 0.31.

L15G: the abundance fitness was -1.06 ± 0.13. Take E32S: the abundance fitness was -0.03 ± 0.048. For E32D, the abundance fitness was -0.088 ± 0.073. As for E32Y, the abundance fitness was -0.104 ± 0.11. On the same count and under the same terms, in the case of E32Q it was 0.041 ± 0.065; in that of E32R, -0.077 ± 0.041; in that of E32G, -0.046 ± 0.033.

With E32K, the abundance fitness was -0.057 ± 0.081. On the same count and under the same terms, in the case of E32H it was 0.056 ± 0.11; in that of E32V, -0.071 ± 0.045. For R54F, the abundance fitness was -0.082 ± 0.24.

L34R: the abundance fitness is -0.83 ± 0.067. Regarding T40L, the abundance fitness was -0.077 ± 0.024. The same measure, in the same setting: in the case of T40K it was -0.042 ± 0.063; in that of T40P, -0.551 ± 0.06. As for T40Q, the abundance fitness was 0.021 ± 0.076. As for T40F, the abundance fitness is -0.105 ± 0.094. Same read-out and setting: in the case of T40R it was 0.016 ± 0.041.

For V61F, the abundance fitness is -0.166 ± 0.1. On to R26I, for which the abundance fitness was -0.199 ± 0.066. Consider R26N, for which the abundance fitness worked out at 0.023 ± 0.14. For the variant T30Q, the abundance fitness came out at 0.01 ± 0.067. As to T30M, the abundance fitness is -0.102 ± 0.068. Still for that read-out and setting: in the case of N23S it was -0.12 ± 0.038.

N23V: the abundance fitness is -0.143 ± 0.046. In the case of S24T, the abundance fitness was determined as 0.058 ± 0.052. Consider S24R, for which the abundance fitness is -0.018 ± 0.035. Take S24A: the abundance fitness was -0.002 ± 0.047. Consider E63D, for which the abundance fitness is -0.004 ± 0.089.

Take E63R: the abundance fitness is -0.015 ± 0.029. G44A: the abundance fitness was -0.054 ± 0.044. Take G44S: the abundance fitness was found to be 0.016 ± 0.042. As for G44L, the abundance fitness was -0.091 ± 0.034.

Turning to G72H, the abundance fitness was -0.293 ± 0.073.

For G72N, the abundance fitness is -0.16 ± 0.19. Turning to G72P, the abundance fitness was -0.614 ± 0.059. Take T59I: the abundance fitness turned out to be 0.029 ± 0.074. Turning to T59F, the abundance fitness was 0.018 ± 0.064. Consider T59W, for which the abundance fitness stood at 0.062 ± 0.048. Still for that read-out and setting: in the case of T59L it was 0.067 ± 0.034; in that of S20V, -0.171 ± 0.044.

Regarding S20T, the abundance fitness was -0.006 ± 0.06. In the case of S20K, the abundance fitness worked out at 0.018 ± 0.075. On to D71F, for which the abundance fitness was -0.099 ± 0.056.

Regarding D71Y, the abundance fitness is -0.243 ± 0.099. The same measure, in the same setting: in the case of D71K it was 0.073 ± 0.088. Take D71S: the abundance fitness was -0.05 ± 0.046.

Regarding P48M, the abundance fitness is -0.099 ± 0.13. Same read-out and setting: in the case of P48R it was -0.415 ± 0.035; in that of P48C, -0.085 ± 0.048. Turning to P48I, the abundance fitness is -0.016 ± 0.069. As for V45K, the abundance fitness is -0.222 ± 0.091.

The record behind these values is the Human Domainome abundance scans (Beltran et al. 2025).
